Paper PMC8219380, “The discriminatory power of the T cell receptor” (eLife, 2021)
Each block holds one molecule with its values, some of them ahead of it.

Experiments:
[1] = tested on: ErbB2; experiment: Discrimination power from published data: ErbB2 CARs; conditions: n 4, ref Liu 2015
From the text: (§1) The broad method was to obtain a measure of ligand potency from each study. […] If not explicitly provided, we estimated ligand potency as PX , which was defined by the concentration of ligand that produced X response. To do this, we drew a horizontal line at X on a provided dose-response graph and estimated the ligand concentration where the data intercepted the horizontal line. The disadvantage with this method is that ligand potency was estimated based on the single representative graph provided in the study.
(§2) Each study often contained or cited a study that contained estimates of KD or koff for the specific TCR/pMHC interactions used in the study. We only included studies where monomeric SPR binding data was available to avoid multimeric binding parameters (e.g. when using tetramers). However, when analysing discrimination by other non-TCR receptors, we included binding data from various methods (e.g. SPR, radio labelled ligands) provided they were monomeric measurements. The use of SPR is important for weak interactions, such as TCR/pMHC, but various methods are available for higher-affinity interactions.
(§3) The plot of potency over KD or k off was fit using linear regression on log-transformed axes. We reported the slope of the fit (i.e. the discrimination power, α), the goodness-of-fit measure ( R^2 ), and the p-value for the null hypothesis that the slope is zero (i.e. α=0 ). […]

[2] = tested on: IFNAR1 and IFNAR2; experiment: Discrimination power from published data: type I IFN receptor; conditions: n 13, ref Thomas C. 2011
From the text: as §1, §2, §3

[3] = tested on: M3 muscarinic receptor; experiment: Discrimination power from published data: M3 receptor; conditions: n 7, ref Sykes 2009
From the text: as §1, §2, §3

[4] = tested on: c-Kit; experiment: Discrimination power from published data: c-Kit; conditions: n 4, ref Ho 2017
From the text: as §1, §2, §3

[5] = tested on: gp130; experiment: Discrimination power from published data: IL-6 receptor; conditions: ns, ref Martinez-Fabregas 2019
From the text: as §1, §2, §3

[6] = tested on: IL-13Ra1; experiment: Discrimination power from published data: IL-13 receptor; conditions: ref Moraga 2015
From the text: as §1, §2
(§4) The plot of potency over KD or k off was fit using linear regression on log-transformed axes. We reported the slope of the fit (i.e. the discrimination power, α), the goodness-of-fit measure ( R^2 ), and the p-value for the null hypothesis that the slope is zero (i.e. α=0 ). We defined significance using the threshold of p=0.05.
Cytokine receptors transduce signals by ligand-induced dimerisation of receptor subunits. We identified five studies that produced ligands with mutations that modified binding to either one or both receptor subunits and either reported potency or provided dose-response curves from which potency can be extracted ([Levin et al., 2012]; [Moraga et al., 2015]; [Thomas et al., 2011a]; [Mendoza et al., 2017]; [Martinez-Fabregas et al., 2019]). […] By measuring cellular responses, such as upregulation of CD86 on monocytes, dose-response curves were generated for each IL-13 variant, allowing us to determine ligand potency. We observed a significant correlation between potency and KD (Figure 6A). We repeated the analysis for each study (Figure 6—source data 1 ID 1–13). In studies that included ligands with mutations to both receptor interfaces, we plotted potency over the product of the dissociation constants to each interface since this serves as an estimate of the overall affinity (i.e. KD1×KD2 ).

[7] = tested on: IL-2 receptor subunit β (IL-2Rb); experiment: Discrimination power from published data: IL-2 receptor; conditions: n 4, ref Levin 2012
From the text: as §1, §2, §3

[8] = tested on: CXC chemokine receptor 3; experiment: Discrimination power from published data: CXCR3; conditions: ref Heise 2005
From the text: as §1, §2, §4
Therefore, ligand affinity may not correlate to functional potency. Instead, we focused on identifying studies that used ligands that were confirmed to bind to the same interface with different affinities. As an example, Sykes et al. used seven agonists to the muscarinic M3 receptor and confirmed they all bound to the same interface using a binding competition assay ([Sykes et al., 2009]). Using titrations of each ligand, they examined the binding of GTPγS to CHO-M3 membrane as a measure of response (Figure 6C, left). […]

Molecule: ErB2
Power (discrimination power) ([1]; ID 26, output CD107): 1.058
Power (discrimination power) ([1]; ID 27, output Proliferation, ns): 0.6409

Power (discrimination power) ([2]; ID 7, output antiviral): 0.7137
Power (discrimination power) ([2]; ID 8, output antiproliferation): 1.329
Molecule: IFNAR1/IFNAR2

Molecule: M3 muscarinic receptor: M3 muscarinic receptor, set of agonists
Power (discrimination power) ([3]; ID 19, output Calcium, ns): 0.7717
Power (discrimination power) ([3]; ID 20, output GTPyS Binding): 0.5478

Molecule: c-Kit: receptor tyrosine kinase activated by SCF
Power (discrimination power) ([4]; ID 15, output pERK): 0.834
Power (discrimination power) ([4]; ID 16, output pAKT): 0.882

Power (discrimination power) ([5]; ID 12, output pSTAT1, n 3): 0.5438
Power (discrimination power) ([5]; ID 13, output pSTAT3, n 4): 0.5194
B1: gp130 (and IL6R alpha) (protein, UniProt P40189 23-918; P08887 20-468, looked up)
Interleukin-6 receptor … 1: ELLDPCGYISPESPVVQLHSNFTAVCVLKEKCMDYFHVNANYIVWKTNHFTIPKEQYTIINRTASSVTFTDIASLNIQLTCNILTFGQLEQNVYGITIISGLPPEKPKNLSCIVNEGKKMRCEWDGGRETHLETNFTLKSEWATHKFADCKAKRDTPTSCTVDYSTVYFVNIEVWVEAENALGKVTSDHINFDPVYKVKPNPPHNLSVINSEELSSILKLTWTNPSIKSVIILKYNIQYRTKDASTWSQIPPEDTASTRSSFTVQDLKPFTEYVFRIRCMKEDGKGYWSDWSEEASGITYEDRPSKAPSFWYKIDPSHTQGYRTVQLVWKTLPPFEANGKILDYEVTLTRWKSHLQNYTVNATKLTVNLTNDRYLATLTVRNLVGKSDAAVLTIPACDFQATHPVMDLKAFPKDNMLWVEWTTPRESVKKYILEWCVLSDKAPCITDWQQEDGTVHRTYLRGNLAESKCYLITVTPVYADGPGSPESIKAYLKQAPPSKGPTVRTKKVGKNEAVLEWDQLPVDVQNGFIRNYTIFYRTIIGNETAVNVDSSHTEYTLSSLTSDTLYMVRMAAYTDEGGKDGPEFTFTTPKFAQGEIEAIVVPVCLAFLLTTLLGVLFCFNKRDLIKKHIWPNVPDPSKSHIAQWSPHTPPRHNFNSKDQMYSDGNFTDVSVVEIEANDKKPFPEDLKSLDLFKKEKINTEGHSSGIGGSSCMSSSRPSISSSDENESSQNTSSTVQYSTVVHSGYRHQVPSVQVFSRSESTQPLLDSEERPEDLQLVDHVDGGDGILPRQQYFKQNCSQHESSPDISHFERSKQVSSVNEEDFVRLKQQISDHISQSCGSGQMKMFQEVSAADAFGPGTEGQVERFETVGMEAATDEGMPKSYLPQTVRQGGYMPQ
Interleukin-6 receptor … 2: LAPRRCPAQEVARGVLTSLPGDSVTLTCPGVEPEDNATVHWVLRKPAAGSHPSRWAGMGRRLLLRSVQLHDSGNYSCYRAGRPAGTVHLLVDVPPEEPQLSCFRKSPLSNVVCEWGPRSTPSLTTKAVLLVRKFQNSPAEDFQEPCQYSQESQKFSCQLAVPEGDSSFYIVSMCVASSVGSKFSKTQTFQGCGILQPDPPANITVTAVARNPRWLSVTWQDPHSWNSSFYRLRFELRYRAERSKTFTTWMVKDLQHHCVIHDAWSGLRHVVQLRAQEEFGQGEWSEWSPEAMGTPWTESRSPPAENEVSTPMQALTTNKDDDNILFRDSANATSLPVQDSSSVPLPTFLVAGGSLAFGTLLCIAIVLRFKKTWKLRALKEGKTSMHPPYSLGQLVPERPRPTPVLVPLISPPVSPSSLGSDNTSSHNRPDARDPRSPYDISNTDYFFPR

Power (discrimination power) ([6]; ID 4, output Proliferation, n 9, ns): 0.394
Power (discrimination power) ([6]; ID 5, output CD86): 0.442
B2: IL-13Rα2 (protein, UniProt Q14627 27-380, looked up)
Interleukin-13 receptor …: DTEIKVNPPQDFEIVDPGYLGYLYLQWQPPLSLDHFKECTVEYELKYRNIGSETWKTIITKNLHYKDGFDLNKGIEAKIHTLLPWQCTNGSEVQSSWAETTYWISPQGIPETKVQDMDCVYYNWQYLLCSWKPGIGVLLDTNYNLFYWYEGLDHALQCVDYIKADGQNIGCRFPYLEASDYKDFYICVNGSSENKPIRSSYFTFQLQNIVKPLPPVYLTFTRESSCEIKLKWSIPLGPIPARCFDYEIEIREDDTTLVTATVENETYTLKTTNETRQLCFVVRSKVNIYCSDDGIWSEWSDKQCWEGEDLSKKTLLRFWLPFGFILILVIFVTGLLLRKPNTYPKMIPEFFCDT

Power (discrimination power) ([7]; ID 1, output CD25 – pSTAT5 (NK cells)): 0.546
Power (discrimination power) ([7]; ID 2, output CD25 – %pSTAT5 (T cells)): 0.743
B3: IL-2R beta (protein, UniProt P14784 27-551, looked up)
Interleukin-2 receptor …: AVNGTSQFTCFYNSRANISCVWSQDGALQDTSCQVHAWPDRRRWNQTCELLPVSQASWACNLILGAPDSQKLTTVDIVTLRVLCREGVRWRVMAIQDFKPFENLRLMAPISLQVVHVETHRCNISWEISQASHYFERHLEFEARTLSPGHTWEEAPLLTLKQKQEWICLETLTPDTQYEFQVRVKPLQGEFTTWSPWSQPLAFRTKPAALGKDTIPWLGHLLVGLSGAFGFIILVYLLINCRNTGPWLKKVLKCNTPDPSKFFSQLSSEHGGDVQKWLSSPFPSSSFSPGGLAPEISPLEVLERDKVTQLLLQQDKVPEPASLSSNHSLTSCFTNQGYFFFHLPDALEIEACQVYFTYDPYSEEDPDEGVAGAPTGSSPQPLQPLSGEDDAYCTFPSRDDLLLFSPSLLGGPSPPSTAPGGSGAGEERMPPSLQERVPRDWDPQPLGPPTPGVPDLVDFQPPPELVLREAGEEVPDAGPREGVSFPWSRPPGQGEFRALNARLPLNTDAYLSLQELQGQDPTHLV

Power (discrimination power) ([8]; ID 22, output Calcium mobilization, n 3): 0.7346
Power (discrimination power) ([8]; ID 23, output GTP gamma S Binding, n 3): 1.056
Power (discrimination power) ([8]; ID 24, output Migrated Cells, n 2, ns, Perfect line): 0.5609
B4: CXC chemokine receptor 3: CXCR3 with chemokine ligands (protein, UniProt P49682 1-368, looked up)
C-X-C chemokine receptor type …: MVLEVSDHQVLNDAEVAALLENFSSSYDYGENESDSCCTSPPCPQDFSLNFDRAFLPALYSLLFLLGLLGNGAVAAVLLSRRTALSSTDTFLLHLAVADTLLVLTLPLWAVDAAVQWVFGSGLCKVAGALFNINFYAGALLLACISFDRYLNIVHATQLYRRGPPARVTLTCLAVWGLCLLFALPDFIFLSAHHDERLNATHCQYNFPQVGRTALRVLQLVAGFLLPLLVMAYCYAHILAVLLVSRGQRRLRAMRLVVVVVVAFALCWTPYHLVVLVDILMDLGALARNCGRESRVDVAKSVTSGLGYMHCCLNPLLYAFVGVKFRERMWMLLLRLGCPNQRGLQRQPSSSRRDSSWSETSEASYSGL

Power (discrimination power) ([6]; ID 3, output pSTAT6, n 9): 0.471
Power (discrimination power) ([6]; ID 6, output CD205, n 9): 0.421
B5: IL-13Rα1 (protein, UniProt P78552 22-427, looked up)
Interleukin-13 receptor …: GGGGAAPTETQPPVTNLSVSVENLCTVIWTWNPPEGASSNCSLWYFSHFGDKQDKKIAPETRRSIEVPLNERICLQVGSQCSTNESEKPSILVEKCISPPEGDPESAVTELQCIWHNLSYMKCSWLPGRNTSPDTNYTLYYWHRSLEKIHQCENIFREGQYFGCSFDLTKVKDSSFEQHSVQIMVKDNAGKIKPSFNIVPLTSRVKPDPPHIKNLSFHNDDLYVQWENPQNFISRCLFYEVEVNNSQTETHNVFYVQEAKCENPEFERNVENTSCFMVPGVLPDTLNTVRIRVKTNKLCYEDDKLWSNWSQEMSIGKKRNSTLYITMLLIVPVIVAGAIIVLLLYLKRLKIIIFPPIPDPGKIFKEMFGDQNDDTLHWKKYDIYEKQTKEETDSVVLIENLKKASQ
